According to patent publication US20200231693A1 (Janssen / Centocor, published 2020):

Assays:
[1] = molecular target: T1, human OX40 (CD134) (human, UniProt P43489 29-277); experiment: NanoBRET PPI assay on HEK-Blue: OX40 cells (discussion)
T1 construct: also called HEK-Blue: OX40 cells; transfected OX40 receptor
T1 sequence: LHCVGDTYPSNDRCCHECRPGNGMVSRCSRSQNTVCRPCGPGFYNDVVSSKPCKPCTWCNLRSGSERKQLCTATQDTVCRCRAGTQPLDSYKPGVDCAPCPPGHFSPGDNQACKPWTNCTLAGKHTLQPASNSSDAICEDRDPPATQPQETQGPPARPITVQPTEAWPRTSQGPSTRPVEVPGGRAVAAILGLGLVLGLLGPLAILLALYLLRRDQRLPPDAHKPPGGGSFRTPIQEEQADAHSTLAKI
Description: The next day, equal concentrations of Nanoluc-tagged antibody (donor) and Halotag-tagged antibody (acceptor) in 50 μl assay medium (Opti-MEM I reduced serum medium, no phenol red plus 4% FBS) were applied to the cells. Halotag 618 ligand diluted 1:1000 in 50 μl assay medium were added in experimental well, and a no ligand control well was also set up by diluting DMSO 1:1000 in assay medium. After incubation at 37° C. for 30 min, the cells were washed twice with assay medium and resuspended in 100 μl assay medium. 25 μl Nano-Glo substrate, diluted 1:200 in assay medium without FBS, was added to each well. After shaking for 30 seconds, the donor emission (460 nm) and acceptor emission (618 nm) were measured by Envision. Raw NanoBRET ratio values with milliBRET units (mBU) were calculated as RawBRET=618 nmEm/460 nmEm*1000. To factor in donor-contributed background or bleed through, Corrected NanoBRET ratio values with milliBRET units was calculated as CorrectedBRET=RawBRETₑₓₚₑᵣᵢₘₑₙₜₐₗ sample−RawBRET_{no-ligand control sample}, which reflects energy transfer from a bioluminescent protein donor to a fluorescent protein acceptor due to protein-protein interactions.
To evaluate whether the engineered antibodies multimerize upon binding antigens at the cell surface a NanoBRET™ protein-protein interaction (PPI) assay was conducted. This assay is a proximity-based assay that detects protein-protein interactions by measuring energy transfer from a bioluminescent protein donor to a fluorescent protein acceptor. […] NanoBRET PPI assays were performed by applying the donor and acceptor antibodies to HEK-Blue: OX40 cells and the calculated corrected NanoBRET ratios reflect the association of multimerized antibody.

[2] = molecular target: human FcγRIIIA (NM_000569) (human, UniProt P08637 17-254); experiment: flow cytometry on Expi293F cells transfected with FcγRIIIA
Chain of human FcγRIIIA (NM_000569) (P08637 17-254 limits assumed): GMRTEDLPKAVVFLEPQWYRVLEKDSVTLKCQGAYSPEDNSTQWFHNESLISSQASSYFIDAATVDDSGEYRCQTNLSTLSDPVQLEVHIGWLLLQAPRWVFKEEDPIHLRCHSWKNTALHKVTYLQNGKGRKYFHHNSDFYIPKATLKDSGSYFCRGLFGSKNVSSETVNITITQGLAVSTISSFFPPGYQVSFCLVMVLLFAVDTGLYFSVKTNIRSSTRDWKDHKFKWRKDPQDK
Description: (§1) Plasmids expressing cDNAs encoding human FcγRI (NM_000566) (SEQ ID NO: 59), FcγRIIA (NM_021642) (SEQ ID NO: 60), FcγRIIB (NM_004001) (SEQ ID NO: 61), and FcγRIIIA (NM_000569) (SEQ ID NO: 62) (Origene) were transiently transfected into Expi293F cells by Expifectmine293 transfection kit (Life Technologies). Flow cytometry assays were performed 48 h after transfection.
(§2) 2×10⁵ cells per well were seeded in 96-well plate and blocked in BSA Stain Buffer (BD Biosciences, San Jose, USA) for 30 min at 4° C. Cells were incubated with test antibody on ice for 1.5 hour at 4° C. After being washed twice with BSA stain buffer, the cells were incubated with R-PE labeled anti-human or anti-mouse IgG secondary antibody (Jackson Immunoresearch Laboratories) for 45 min at 4° C. The cells were washed twice in stain buffer and then resuspended in 150 μL of Stain Buffer containing 1:200 diluted DRAQ7 live/dead stain (Cell Signaling Technology, Danvers, USA). PE and DRAQ7 signals of the stained cells were detected by Miltenyi MACSQuant flow cytometer (Miltenyi Biotec, Auburn, USA) using B2 and B4 channel respectively. Live cells were gated on DRAQ7 exclusion and the geometric mean fluorescence signals were determined for at least 10,000 live events collected. FlowJo software (Tree Star) was used for analysis. Data was plotted as the logarithm of antibody concentration versus mean fluorescence signals. Nonlinear regression analysis was performed by GraphPad Prism 6 (GraphPad Software, Inc.) and EC₅₀ values were calculated.

[3] = molecular target: human FcγRI (NM_000566) (human, UniProt P12314 16-374); experiment: flow cytometry on Expi293F cells transfected with FcγRI
Chain of human FcγRI (NM_000566) (P12314 16-374 limits assumed): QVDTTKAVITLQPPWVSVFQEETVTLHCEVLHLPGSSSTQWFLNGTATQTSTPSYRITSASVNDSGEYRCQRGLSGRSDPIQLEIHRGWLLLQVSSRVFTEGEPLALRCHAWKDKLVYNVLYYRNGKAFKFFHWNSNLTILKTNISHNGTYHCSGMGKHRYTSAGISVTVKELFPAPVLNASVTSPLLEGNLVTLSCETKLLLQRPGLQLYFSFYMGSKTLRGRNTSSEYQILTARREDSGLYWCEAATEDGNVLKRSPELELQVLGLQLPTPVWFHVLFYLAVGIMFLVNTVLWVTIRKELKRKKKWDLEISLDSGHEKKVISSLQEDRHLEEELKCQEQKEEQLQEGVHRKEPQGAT
Description: as §1
as §2, with “The cells were washed twice in stain buffer and then resuspended in 150 μL of Stain Buffer containing 1:200 diluted DRAQ7 live/dead stain (Cell Signaling Technology, Danvers, USA).” left out, “FlowJo software (Tree Star) was used for analysis.” left out

[4] = molecular target: the molecule itself; experiment: SEC, self-association in solution
[5] = molecular target: T2, human FcγRIIB (NM_004001) (human, UniProt P31994 43-310); experiment: flow cytometry on Expi293F cells transfected with FcγRIIB
T2 construct: also called FcγRIIB expressed on transfected Expi293F cells
T2 sequence: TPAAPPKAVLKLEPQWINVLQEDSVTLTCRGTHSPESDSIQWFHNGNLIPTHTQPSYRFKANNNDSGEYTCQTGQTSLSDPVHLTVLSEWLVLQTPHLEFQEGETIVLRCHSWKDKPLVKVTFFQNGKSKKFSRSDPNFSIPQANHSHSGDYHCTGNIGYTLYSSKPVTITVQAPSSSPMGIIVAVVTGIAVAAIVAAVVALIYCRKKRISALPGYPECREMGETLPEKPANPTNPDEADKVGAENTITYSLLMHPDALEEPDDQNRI
Description: as §1, §2

[6] = molecular target: T3, FcγRIIB on Raji cells (human, UniProt P31994 43-310); experiment: cell-based or functional assay
T3 sequence (looked up): T2 sequence

[7] = molecular target: T2, human FcγRIIB (NM_004001); experiment: binding to transfected Expi293F cells (data not shown)
[8] = molecular target: T4, human FcγRIIA (NM_021642) (human, UniProt P12318 36-317); experiment: flow cytometry on Expi293F cells transfected with FcγRIIA (R131 allotype per text)
T4 construct: also called FcγRIIA^R131; R131 allotype of FcγRIIA
T4 sequence: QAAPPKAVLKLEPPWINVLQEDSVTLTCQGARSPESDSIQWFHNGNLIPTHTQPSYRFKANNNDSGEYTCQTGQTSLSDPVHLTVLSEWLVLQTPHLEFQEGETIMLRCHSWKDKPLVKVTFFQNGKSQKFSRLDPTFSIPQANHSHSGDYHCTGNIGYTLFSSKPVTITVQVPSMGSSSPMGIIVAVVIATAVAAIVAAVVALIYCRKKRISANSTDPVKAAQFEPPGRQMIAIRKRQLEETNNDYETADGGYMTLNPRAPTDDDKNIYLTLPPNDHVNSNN
Description: as §1
as §2, with “The cells were washed twice in stain buffer and then resuspended in 150 μL of Stain Buffer containing 1:200 diluted DRAQ7 live/dead stain (Cell Signaling Technology, Danvers, USA).” left out, “FlowJo software (Tree Star) was used for analysis.” left out

B1: OX40SF2IgG1E345R/E430G (antibody)
heavy: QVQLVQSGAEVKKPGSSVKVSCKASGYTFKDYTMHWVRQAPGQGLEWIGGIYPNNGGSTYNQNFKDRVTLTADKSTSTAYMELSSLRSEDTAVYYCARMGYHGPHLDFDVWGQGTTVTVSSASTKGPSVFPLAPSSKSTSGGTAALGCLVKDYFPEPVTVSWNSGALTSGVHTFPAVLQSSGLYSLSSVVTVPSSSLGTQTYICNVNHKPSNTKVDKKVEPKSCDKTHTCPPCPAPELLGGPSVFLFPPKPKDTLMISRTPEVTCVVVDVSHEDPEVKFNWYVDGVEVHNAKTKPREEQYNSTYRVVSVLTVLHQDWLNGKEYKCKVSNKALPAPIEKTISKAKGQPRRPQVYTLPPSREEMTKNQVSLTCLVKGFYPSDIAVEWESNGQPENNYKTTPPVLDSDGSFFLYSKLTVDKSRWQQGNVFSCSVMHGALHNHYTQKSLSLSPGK
VL: DIQMTQSPSSLSASVGDRVTITCKASQDVGAAVAWYQQKPGKAPKLLIYWASTRHTGVPSRFSGSGSGTDFTLTISSLQPEDFATYYCQQYINYPLTFGGGTKVEIK
notes: Full IgG1; In the NanoBRET assay the light chains carried a C-terminal Nanoluc or HaloTag
Question: Does B1 bind [1]?
Answer: Result: binds

B2: OX40SF2IgG1 (antibody)
heavy: not shown
VL: B1 VL
notes: Full IgG1, wild-type Fc; also called SF2 antibody with native human IgG1 Fc; wild-type IgG1
Question: How did the EC50 [2] turn out when B2 was run?
Answer: Its EC50 is 0.744 mg/L.

Question: What about the EC50 [3] of the same binder?
Answer: The EC50 was 0.326 mg/L.

Question: Does B2 bind [4]?
Answer: Result: no binding

B3: OX40SF2IgG1V12 (antibody, name in EU numbering)
heavy: QVQLVQSGAEVKKPGSSVKVSCKASGYTFKDYTMHWVRQAPGQGLEWIGGIYPNNGGSTYNQNFKDRVTLTADKSTSTAYMELSSLRSEDTAVYYCARMGYHGPHLDFDVWGQGTTVTVSSASTKGPSVFPLAPSSKSTSGGTAALGCLVKDYFPEPVTVSWNSGALTSGVHTFPAVLQSSGLYSLSSVVTVPSSSLGTQTYICNVNHKPSNTKVDKKVEPKSCDKTHTCPPCPAPDLLGDDSVFLFPPKPKDTLMISRTPEVTCVVVDVSDEDGEVKFNWYVDGVEVHNAKTKPREEQYNSTYRVVSVLTVLHQDWLNGKEYKCKVSNKALPRPIEKTISKAKGQPREPQVYTLPPSRDELTKNQVSLTCLVKGFYPSDIAVEWESNGQPENNYKTTPPVLDSDGSFFLYSKLTVDKSRWQQGNVFSCSVMHEALHNHYTQKSLSLSPGK
VL: B1 VL
notes: Full IgG1; Positions are EU Index
Question: Which EC50 [5] does the source give for B3 here?
Answer: Its EC50 is 0.502 mg/L.

Question: Does B3 bind [2]?
Answer: Result: no binding (tested: 1 ng/ml to 10000 ng/ml)

Question: What about the “HEK-Blue NFκB reporter assay, co-culture with Raji cells; efficacy at 1000 ng/ml against OX40 ligand at the same concentration” value [6] of the same binder?
Answer: The value was over 2 fold.

B4: OX40SF2IgG1E345R/E430G/S440Y (antibody)
heavy: QVQLVQSGAEVKKPGSSVKVSCKASGYTFKDYTMHWVRQAPGQGLEWIGGIYPNNGGSTYNQNFKDRVTLTADKSTSTAYMELSSLRSEDTAVYYCARMGYHGPHLDFDVWGQGTTVTVSSASTKGPSVFPLAPSSKSTSGGTAALGCLVKDYFPEPVTVSWNSGALTSGVHTFPAVLQSSGLYSLSSVVTVPSSSLGTQTYICNVNHKPSNTKVDKKVEPKSCDKTHTCPPCPAPELLGGPSVFLFPPKPKDTLMISRTPEVTCVVVDVSHEDPEVKFNWYVDGVEVHNAKTKPREEQYNSTYRVVSVLTVLHQDWLNGKEYKCKVSNKALPAPIEKTISKAKGQPRRPQVYTLPPSREEMTKNQVSLTCLVKGFYPSDIAVEWESNGQPENNYKTTPPVLDSDGSFFLYSKLTVDKSRWQQGNVFSCSVMHGALHNHYTQKYLSLSPGK
VL: B1 VL
notes: In the NanoBRET assay the light chains carried a C-terminal Nanoluc or HaloTag; also called OX40SF2E345R/E430G/S440Y
Question: Does B4 bind [7]?
Answer: Result: binds

Question: Does B4 bind [4]?
Answer: Result: binds

B5: OX40SF2IgG1S267E/L328F (antibody, name in EU numbering)
heavy: not shown
VL: B1 VL
notes: Full IgG1; Positions are EU Index, not positions on the UniProt entry
Question: What does the source list for B5?
Answer: EC50 [5]: 0.459 mg/L; binding result [2]: no binding (tested: 1 ng/ml to 10000 ng/ml); EC50 [8]: 0.216 mg/L; fold better potency (against OX40SF2IgG1, reference implied) [8]: 20 fold; HEK-Blue NFκB reporter assay, co-culture with Raji cells; efficacy at 1000 ng/ml against OX40 ligand at the same concentration [6]: > 2 fold

B6: OX40SF2IgG1E345R (antibody)
heavy: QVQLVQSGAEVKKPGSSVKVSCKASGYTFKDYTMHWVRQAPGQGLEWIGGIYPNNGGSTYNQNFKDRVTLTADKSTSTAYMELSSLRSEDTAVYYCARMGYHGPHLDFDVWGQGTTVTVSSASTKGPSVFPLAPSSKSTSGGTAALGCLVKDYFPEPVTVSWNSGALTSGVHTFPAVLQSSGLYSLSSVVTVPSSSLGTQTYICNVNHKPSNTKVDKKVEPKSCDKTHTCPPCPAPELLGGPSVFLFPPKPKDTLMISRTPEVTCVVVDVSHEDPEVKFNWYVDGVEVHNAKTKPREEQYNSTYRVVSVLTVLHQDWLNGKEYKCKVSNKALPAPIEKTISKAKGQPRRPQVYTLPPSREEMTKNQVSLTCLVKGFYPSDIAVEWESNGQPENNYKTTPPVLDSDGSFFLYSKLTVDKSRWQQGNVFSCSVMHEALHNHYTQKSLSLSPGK
VL: B1 VL
notes: as for B1
Question: Does B6 bind [1]?
Answer: Result: binds

Question: What about the “HEK-Blue NFκB reporter assay, co-culture with Raji cells against no Raji cells” value [6] of the same binder?
Answer: The value was over 2 fold.

B7: OX40SF2IgG1E430G (antibody)
heavy: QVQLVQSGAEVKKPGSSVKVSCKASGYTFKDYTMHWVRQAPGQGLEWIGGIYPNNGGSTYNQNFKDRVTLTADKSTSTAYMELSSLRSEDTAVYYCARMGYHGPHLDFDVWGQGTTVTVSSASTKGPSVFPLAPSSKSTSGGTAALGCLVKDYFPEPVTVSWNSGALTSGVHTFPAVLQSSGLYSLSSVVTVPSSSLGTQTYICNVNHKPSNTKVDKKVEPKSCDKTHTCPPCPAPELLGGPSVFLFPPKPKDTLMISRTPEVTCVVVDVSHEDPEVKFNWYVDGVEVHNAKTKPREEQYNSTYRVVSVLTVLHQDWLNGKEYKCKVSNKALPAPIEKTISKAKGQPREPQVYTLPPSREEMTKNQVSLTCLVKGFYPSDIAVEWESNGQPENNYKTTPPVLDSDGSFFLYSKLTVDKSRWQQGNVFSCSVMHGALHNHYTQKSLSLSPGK
VL: B1 VL
notes: as for B1
Question: Does B7 bind [1]?
Answer: Result: binds

B8: anti-FcγRIIB antibody 2B6 (antibody)
chain 1: QVQLQQPVTELVRPGASVMLSCKASDYPFTNYWIHWVKQRPGQGLEWIGVIDPSDTYPNYNKKFKGKATLTVVVSSSTAYMQLSSLTSDDSAVYYCARNGDSDYYSGMDYWGQGTSVTVSS
chain 2: DILLTQSPAILSVSPGERVSFSCRTSQSIGTNIHWYQQRTNGFPRLLIKNVSESISGIPSRFSGSGSGTDFILSINSVESEDIADYYCQQSNTWPFTFGGGTKLEIK
Question: How did the EC50 [5] turn out when B8 was run?
Answer: The EC50 was 0.431 mg/L.
